From patent US20200399355A1 (University of California, published 2020)
Square brackets hold non-standard residues; d marks the D form. Ends that are not written are not given here. Cit = NC(=O)NCCC[C@H](N)C(=O)O

Assays:
[1] = target: biotinylated CV peptide (Innovagen), CV60-75, on streptavidin; assay: flow cytometry of transduced Tregs stained with biotinylated-CV-peptide/streptavidin-FITC tetramer (y axis, 'CAR+ cells') and EGFRt antibody (x axis)
[2] = target: biotinylated CV peptide (Innovagen), CV60-75, on streptavidin; assay: flow cytometry of transduced Tregs stained with biotinylated-CV-peptide/streptavidin-FITC tetramer (y axis, 'CAR+ cells') and EGFRt antibody (x axis); number printed under the right half of the panel, taken as the lower right quadrant
[3] = target: T1, Human CV peptide 60-75 (biotinylated citrullinated vimentin peptide) (human, also: biotinylated, position not given here); assay: SPR (Biacore T100), biotinylated CV peptide on streptavidin-coated sensor chip, scFv injected from 400nM down to 12.5nM; fit table under the sensorgrams, column ka (1/Ms)
T1 construct: Captured through biotin on streptavidin (ELISA plate or SPR chip); also called human citrullinated vimentin
T1 peptide: VYAT[Cit]SSAV[Cit]L[Cit]SSVP
Description: (§1) Assessment of the binding specificity and affinity of BVCA1 antibodies and scFv to CV peptide: The binding specificity of BVCA1 IgG and scFv were assessed by ELISA. 96-well ELISA plates were coated 0/N at 4° C. with 50 μl Streptavidin at 10m/ml. Wells were washed three times and blocked with 2000 of 1×PBS 1% BSA for 1 h at RT and washed again. 1000 of biotinylated peptides at 10 ug/ml diluted in PBS 1% BSA were added and incubated for 1 h at RT. Wells were then washed three times. 1000 of BVCA1 IgG or scFv or isotype control were added at various concentrations (serial dilution). […] Reaction was stopped with 50 11.1 of NaOH 3M after 15 to 30 min and absorbance was read in a microplate reader at 405 nm. Kinetics and affinities of BVCA1 Ig and scFv to CV peptide were analyzed by surface plasmon resonance using Biacore T100 (GE healthcare). […]

[4] = target: T1, Human CV peptide 60-75 (biotinylated …); assay: SPR (Biacore T100), biotinylated CV peptide on streptavidin-coated sensor chip, scFv injected from 400nM down to 12.5nM; fit table under the sensorgrams, column KD (M)
Description: as §1

[5] = target: T1, Human CV peptide 60-75 (biotinylated …); assay: ELISA, biotinylated peptide on streptavidin-coated plate, scFv detected with anti-c-Myc 9E10 and anti-mouse IgG-AP, absorbance 405 nm
Description: as §1

[6] = target: T2, Murine CV peptide 60-75 (biotinylated citrullinated vimentin peptide) (murine, also: biotinylated, position not given here); assay: as above
T2 construct: Captured through biotin on streptavidin in ELISA; also called murine citrullinated vimentin
T2 peptide: AYVT[Cit]SSAV[Cit]L[Cit]SSVP
Description: as §1

[7] = target: T1, Human CV peptide 60-75 (biotinylated …); assay: SPR (Biacore T100), biotinylated CV peptide immobilised on streptavidin-coated chip, scFv injected
Description: as §1

[8] = target: T1, Human CV peptide 60-75 (biotinylated …); assay: SPR (Biacore T100), biotinylated CV peptide on streptavidin-coated sensor chip, scFv injected from 400nM down to 12.5nM; fit table under the sensorgrams, column kd (1/s)
Description: as §1

Molecule: CD19.41BBz-CAR on human Tregs
- % of cells CVpep-SA-FITC+ EGFRt+ (upper right quadrant) [1]: 0.5%
- % of cells CVpep-SA-FITC- EGFRt+ (lower right quadrant; the number stands below the panel) [2]: 63.4%

Molecule: CD19.28z-CAR on human Tregs
- % of cells CVpep-SA-FITC+ EGFRt+ (upper right quadrant) [1]: 1.5%
- % of cells CVpep-SA-FITC+ EGFRt- (upper left quadrant) [1]: 0.1%
- % of cells CVpep-SA-FITC- EGFRt+ (lower right quadrant; the number stands below the panel) [2]: 72.9%

B1: BVCA1 scFv (soluble CV-specific scFv, VH-linker-VL) (scFv)
scFv: EVKLIESGGGLVEPGRSLRLACTTSGFTFADYGLSWFRQGPGKGLEWVGFTGPKHLGETTECAPSVEDRCTISRDDSKSTVYLQMHRLQHEDTAVYFCVGPWFGDLLMWGQGTLVTVSSASSGGSTSGSGKPGSGEGSSGSARAIQMTQSPSSLSASVGDRVSITCRATQDISTSLGWYHQRPGKAPRLLIYGASKVQTGVPSRFSGNGSGTEFTLTISSLQPEDIGTYYCLQDDGFPFTVGQGTKLDIKRAAA
notes: Produced in E. coli periplasm; also called anti-CV scFv; single-chain variable fragment (scFv) synthesized from BVCA1 antibody; not shown: tags of the pSYN-expressed protein (detected with anti-c-Myc 9E10, purified on Ni-NTA)
- kon [3]: 19000 M⁻¹ s⁻¹
- Kd [4]: 198 nM
- EC50 (read off the curve) [5]: ~2 ng/mL
- EC50 (read off the curve) [6]: ~2 ng/mL
- Kd [7]: 198 nM
- koff [8]: 0.00377 s⁻¹

B2: CV.41BBz-CAR (Anti-CV CAR-41BBz) on human Tregs (protein)
chain: EVKLIESGGGLVEPGRSLRLACTTSGFTFADYGLSWFRQGPGKGLEWVGFTGPKHLGETTECAPSVEDRCTISRDDSKSTVYLQMHRLQHEDTAVYFCVGPWFGDLLMWGQGTLVTVSSASSGGSTSGSGKPGSGEGSSGSARAIQMTQSPSSLSASVGDRVSITCRATQDISTSLGWYHQRPGKAPRLLIYGASKVQTGVPSRFSGNGSGTEFTLTISSLQPEDIGTYYCLQDDGFPFTVGQGTKLDIKRAAAIEVMYPPPYLDNEKSNGTIIHVKGKHLCPSPLFPGPSKPFWVLVVVGGVLACYSLLVTVAFIIFWVKRGRKKLLYIFKQPFMRPVQTTQEEDGCSCRFPEEEEGGCELRVKFSRSADAPAYQQGQNQLYNELNLGRREEYDVLDKRRGRDPEMGGKPRRKNPQEGLYNELQKDKMAEAYSEIGMKGERRRGKGHDGLYQGLSTATKDTYDALHMQALPPR
- % of cells CVpep-SA-FITC+ EGFRt+ (upper right quadrant) [1]: 55.4%
- % of cells CVpep-SA-FITC+ EGFRt- (upper left quadrant) [1]: 0.6%
- % of cells CVpep-SA-FITC- EGFRt+ (lower right quadrant) [1]: 18.9%

B3: CV.28z-CAR (Anti-CV CAR-CD28z) on human Tregs (protein)
chain: EVKLIESGGGLVEPGRSLRLACTTSGFTFADYGLSWFRQGPGKGLEWVGFTGPKHLGETTECAPSVEDRCTISRDDSKSTVYLQMHRLQHEDTAVYFCVGPWFGDLLMWGQGTLVTVSSASSGGSTSGSGKPGSGEGSSGSARAIQMTQSPSSLSASVGDRVSITCRATQDISTSLGWYHQRPGKAPRLLIYGASKVQTGVPSRFSGNGSGTEFTLTISSLQPEDIGTYYCLQDDGFPFTVGQGTKLDIKRAAAIEVMYPPPYLDNEKSNGTIIHVKGKHLCPSPLFPGPSKPFWVLVVVGGVLACYSLLVTVAFIIFWVRSKRSRLLHSDYMNMTPRRPGPTRKHYQPYAPPRDFAAYRSRVKFSRSADAPAYQQGQNQLYNELNLGRREEYDVLDKRRGRDPEMGGKPRRKNPQEGLYNELQKDKMAEAYSEIGMKGERRRGKGHDGLYQGLSTATKDTYDALHMQALPPR
- % of cells CVpep-SA-FITC+ EGFRt+ (upper right quadrant) [1]: 47.5%
- % of cells CVpep-SA-FITC+ EGFRt- (upper left quadrant) [1]: 0.6%
- % of cells CVpep-SA-FITC- EGFRt+ (lower right quadrant) [1]: 20.7%
